From the RNAGym collection of RNA variant scans (doi:10.1073/pnas.2313332121)

B1: TPR t1 (parent)
chain: GACCAAUCUGCCCUCAGAGCUCGAGAACAUCUUCGGAUGCAGAGGAGGCAGGCUUCGGUGGCGCGAUAGCGCCAACGUCCUCAACCUCCAAUGCAUCCCACCACAUGAUGAUGCCUGAAGAGCCUUGGUUUUUUG

Variants of: B1
Assay: polymerase ribozyme fitness, log enrichment relative to wild type (log ratio); higher = more active; in vitro selection for triplet polymerase activity
Method in brief: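 PCR was used to build mutant libraries for each subunit of a heterodimeric triplet polymerase ribozyme, which were then transcribed. A single in vitro selection round, in triplicate, used a frozen incubation at −7 °C and recovered extended constructs by gel excision, streptavidin beads and RT-PCR. Fitness is the logarithm of genotype enrichment relative to wild-type enrichment, averaged over replicates with inverse-variance weights. The logarithm is base 2, and after Illumina sequencing only genotypes with ≥10 input reads and ≥1 read per output were kept.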

Variant | polymerase ribozyme fitness (log ratio)
C11U C13G C56U G93C C114U A119G | -3.78
C11U C94A C102A | -3.51
C11U C13A C89U | -2.3
C11G C101U | 0.142
C11U A37C G52C C76U | -2.87
C11U A29U C53U C72A C123A | -0.568
C12A G47A C70U C88U U106A | -2.59
C11G G71C | -0.604
C11G G71A | -0.503
C11G G44C G77A C80A U130A U131A | -4.18
C12A A37U A68G C114G | -6.56
C12A C20A C64A C88U U116C | -6.74
C12A G35A C49A | -5.9
C11G G48A | -0.377
C11G G48U | -1.46
C11G U14A A46U G61A C62U | -2.33
C11U A29U A91U G107C C114U | -5.83
C11U C15A C40U C73A C123G | -0.889
C11U C76A | -0.763
C11U C76U | -0.741
C11U C72A | 0.246
C12A G23A C82G | -7.42
C12A C62U | -0.927
C11G G61U U96C | -0.274

Variant | polymerase ribozyme fitness (log ratio)
C12A U32C G107A G120A | -3.32
C12G A41G C72U C102U | -2.31
C12A A37C A46C C88U | -2.57
C12A G61A C64U | -4
C11U U32A A46C G48A C72G U112G | -5.51
C11U C104U U126G | -2.39
C11G G39U C49G C64U G117C | -4.26
C12A A46U G47C | -1.36
C12A A24U U32A C99A U116C U130G | -7.85
C11G G60A G120A G135A | 1.87
C12A C98U G110C U131A | -6.2
C12A G57U C82G G113A G122A | -2.01
C11G G65C | -5.03
C12A G19A G60U | -2.57
C12G C13A A50C A119U G127A | -1.75
C12G C34A C56U | -2.05
C12A G48U C53A C101U G113C G120A | -3.38
C12A U130C U131C | -0.148
C11U C40G C64U | -1.72
C11U C12U C34A G63U U78C C104G G117C | -6.71
C12A C22G | -2.6
C12A C64U | -0.93
C11U U55G | -2.15
C11U G47C C56U U78A A100U C115U U131C | -4.41

Variant | polymerase ribozyme fitness (log ratio)
C11U A41C C49G U59A G61U A91C U130G | -3.24
C11U C89G | -1.89
C11U G61A C94G | -0.792
C12A C15A C72A G110U | -4.88
C12G C13A C56U C124A U132C | 0.686
C12G A29U C56U A118C C123G | -0.961
C11U C89A U112G | -1.71
C11U A18U C34U C64G C79U C123A | -5.92
C11U C115A U125G | -2.51
C11U C13A U78A | -0.472
C11U G17A C82A | -4.52
C12A G48C U54C A83C C88A | -2.86
C11G G63U | -0.927
C11G U32C G35C C97U G120C | -2.23
C11U A74G C89G | -3.01
C12A C99G G110U | -6.29
C11U G17A U106A | -3.29
C12A C53A G61U U109G G117C U125A U126C | -7.8
C11U U14G G19U A29G C31U U32C C72G A111U U129A | -7.29
C11U G48U U59C A84G C101A | -2.88
C12G C28U A66C C72U A84C | -3.81
C12A C40U C56A U96A G117A | -5.83
C12A C53U A83C U106G G113U | -6.76
C12A U81C | -1.73

Variant | polymerase ribozyme fitness (log ratio)
C11U G58A G71U A90G U116C | -2.7
C12A U32G C53A C89U C114A | -8.31
C11G G44C C72G C88U C101U | -0.537
C12G C15G G45A C49G C85U C124U | -2.82
C12A A41G G61U G117C G135C | -4.3
C11G U32C | -0.0143
C11U G19U U54A G71A A121C G135U | -4.33
C12G C31U C49U G51U C70U C101A U109G | -6.92
C12A G25U A27C A37C U38A C70G C82U C115U | -6.08
C11G G17A | -3.46
C12G A27G C64U C104U | -2.48
C11U G77U A111G U112C G122A | -0.084
C12A C97A U131A | -4.52
C11G G113A A119U G120A | -0.282
C11U G17A G57C C89U G120C | -1.86
C11U C79G U92G | -6.09
C11G U38G C79U | -1.02
C12A G117U U131C | -4.17
C11U G42A C85G | -3.59
C12A U14G G71U | -2.39
C11U G17U G48A C124G | -1.88
C11G C124G | 1.42
C12A A18C A29G C72A | -2.28
C12A G57U G61U C89G | -5.96

Variant | polymerase ribozyme fitness (log ratio)
C12G C40A | -1.14
C12A C13G G35A | -5.31
C12A C62G C72G | -6.48
C12A C72U C98A | -6.65
C11U A27G C76G C80A C85A U112G | -0.749
C11U G45A | -0.828
C12A C56A C70U C102A C104U | -2.58
C11U A43U C70U C98U G122U | -4.47
C11U G57A G63A C101G | -3.69
C11U C20G A27G C56U | -5.19
C12A G19C A91U U126G | -5.51
C12A G35U C40U G45A C53G G63C G117C G127U | -6.85
C12G A83G C88G U125G | -2.21
C12A G61U C104U A108C A121U | -3.79
C11U U106G | -1.1
C12A G58A | -0.259
C11G G61U U87G | 0.243
C12G C20G C56U C79U C82U A91U G107C G117A | -3.77
C11G U21G C53A U55C A68G | -5
C12A U116A C124A | -0.089
C11U G60A U131G | -2.06
C12A U21C A83C | -0.123
C11U U21C G63A C82U | -1.23
C11U C53G A91U | -1.86

Variant | polymerase ribozyme fitness (log ratio)
C11U C13U U32C | -1.05
C11U A18G | -3.57
C12A C80U G120U U132A | 1.64
C12A G69U G107C G117C | -6.81
C11U U32C C70U C98U C124G | -1.48
C12A A46U C82U | -1.99
C12A A16U G44C C94U G117C U129G | -5.45
C12A C64U C115U G120A C123A | -1.16
C12A G47U G60A U78A | -2.01
C12A A46C G60A C82G | -1.19
C12A C85U | -1.04
C11U C114U U132A | -3.3
C12A G60A G110U G122A U132A | -3.16
C12A G61A G93A | -0.608
C12A A26G G57A U78A C124G | -1.04
C11G G36U C56G C82U | -0.948
C12A C28U | -1.82
C12A C49U | -1.61
C11U G42C C53A | -2.22
C11U A46C G120A U133G | -0.579
C12G C31U G61A | -5.13
C11U G45A U78A C86A U106A U125A | -6.24
C12G C20A C49A | -2.49
C12A A83U | -0.825

Variant | polymerase ribozyme fitness (log ratio)
C12A A29U | -1.98
C12A A24G A41U G71C C88U A90G C123G | -4.92
C12A A29U C49U A74G C123A U131A | -1.45
C11U U33G | -5.16
C11U C22U C70U C99U U112A | -6.17
C12A C20A G61C | -4.95
C11G G42A C72A C88U | -1.46
C11U G71A U133G | -1.59
C11U U30G G120C | -5.71
C12A C49A G61A C82A | -0.648
C12A U14G | -1.01
C12A C88G | -1.56
C12A U78C | -0.581
C11U G42C G44U C62U | -2.34
C11U C13U | -1.63
C12A G47C C56A C70U A83U C85U G120C | -4.03
C12G A16G C53A C80U | -5.01
C11G G69U | 0.709
C11U A46G G69U | -0.0646
C12G A29U C62G | -2.88
C11U U33A C85G C101U | -5.74
C12G A46G G128C U131A | -2.32
C12A G19C G58A C82G | -3.7
